These results are taken from patent US20220090012A1 (CRISPR THERAPEUTICS, published 2022).

The target of this assay is T1, recombinant biotinylated human BCMA (human, UniProt Q02223 1-54, biotinylated (site not stated); detected with streptavidin-APC).
T1 construct: Staining reagent; also called recombinant biotinylated BCMA/streptavidin-APC conjugate
T1 sequence (looked up): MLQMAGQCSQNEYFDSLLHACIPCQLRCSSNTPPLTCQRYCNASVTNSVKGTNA
Briefly: flow cytometry; edited T cells carrying the CAR stained with recombinant biotinylated human BCMA and streptavidin-APC. The text has this:
Flowcytometry was used to verify the editing for TRAC, β2M and the insertion and expression of anti-BCMA CAR. Briefly, about one week post electroporation, cells were stained with anti-human TCR, anti-human β2M and recombinant biotinylated human BCMA/streptavidin-APC to assess the levels of editing for TRAC and β2M, and insertion of the nucleotide sequence encoding anti-BCMA CAR.
TRAC−/β2M−, TRAC−/β2M−/Reg-1−, TRAC−/β2M−/TGFBRII− and TRAC−/β2M−/Reg-1−/TGFBRII− anti-BCMA CAR+ T-cells show consistent rates of TCR and β2M disruptions at >90% and >60% rates, respectively as determined by flow cytometry (FIGS. 23A and 23B). Anti-BCMA CAR expression was measured flow cytometrically by determining the percentage of cells that bound recombinant biotinylated BCMA/streptavidin-APC conjugate. All the conditions including TRAC−/β2M−, TRAC−/β2M−/Reg-1−, TRAC−/β2M−/TGFBRII− and TRAC−/β2M−/Reg-1−/TGFBRII− anti-BCMA CAR+ T-cells show consistent rates of CAR insertion (>70%), while the unedited RNP− T-cells have no detectable staining for anti-BCMA CAR (FIG. 23C).

B1: anti-BCMA CAR (BCMA CAR amino acid sequence) (other)
chain: QVQLVQSGAELKKPGASVKVSCKASGNTLTNYVIHWVRQAPGQRLEWMGYILPYNDLTKYSQKFQGRVTITRDKSASTAYMELSSLRSEDTAVYYCTRWDWDGFFDPWGQGTTVTVSSGGGGSGGGGSGGGGSEIVMTQSPATLSVSPGERASISCRASQSLVHSNGNTHLHWYQQRPGQAPRLLIYSVSNRFSEVPARFSGSGSGTDFTLTISSVESEDFAVYYCSQTSHIPYTFGGGTKLEIKSAAAFVPVFLPAKPTTTPAPRPPTPAPTIASQPLSLRPEACRPAAGGAVHTRGLDFACDIYIWAPLAGTCGVLLLSLVITLYCNHRNRKRGRKKLLYIFKQPFMRPVQTTQEEDGCSCRFPEEEEGGCELRVKFSRSADAPAYQQGQNQLYNELNLGRREEYDVLDKRRGRDPEMGGKPRRKNPQEGLYNELQKDKMAEAYSEIGMKGERRRGKGHDGLYQGLSTATKDTYDALHMQALPPR
notes: also called anti-BCMA chimeric antigen receptor
Turning to B1, the binding result was “binds”.
